Measured values as given in the DeepSol protein solubility set.

Experiment: soluble on expression in E. coli; label from the status in PepcDB or PDB records

Sequence | soluble on expression in E. coli
MDNIVTESIKFESEPNYLQRGYHLFDISFLNGLTCVITNKIETDEIHLKIKLDWDERDIEKITGFIQLSYDGHQLKPIDSNFDKRGGICTIIVPKFLYEYRWSFSFNLKLHRDPAKPPQISNDLKSQVSYDTMFEPSRKHDAVLLIGEKKLHVNKAFLSYHSDYFSDLFAEKVDEKNGIPIENVTYENFGLLMSVIYPEAVFSNHQNAEVLLELGNRFKIPAVMRHVENQIVGDTTKFPNKRLISLAEKYGLQKLLAMEIQKMKSFDQAKKFKGSDDYLQLSDATKAKIFDRLIELS | not soluble
MGHHHHHHSHMDQEMRVKRLESEKQELQEQLDLQHKKCQEANQKIQELQASQEARADHEQQIKDLEQKLSLQEQDAAIVKNMKSELVRLPRLERELKQLREESAHLREMRETNGLLQEELEGLQRKLGRQEKMQETLVGLELENERLLAKLQSWERLDQTMGLSIRTPEDLSRFVVELQQRELALKDKNSAVTSSARGLEKARQQLQEELRQVSGQLLEERKKRETHEALARRLQKRVLLLTKERDGMRAILGSYDSELTPAEYSPQLTRRMREAEDMVQKVHSHSAEMEAQLSQALEELGGQKQRADMLEMELKMLKSQS | soluble
STWTPRNRSEDEEEDENIDLEKNDDDEPNKPTDKGDSTDTEADHKLINPGEIPCDRFKDETHSKDLDPPLTDSELKEGEERTDLLAEQAKPTTSSPSVLQRGSDLITQEKPSEPGHAASTGNSNVTSVIHSPPSAPKPKLWSLAEIATSSDRCKGSSEASQAAGLSQSTVIASAASPTRSSPQCPLPNNTVLSRPIYYTSPFYPGYTNYSTFGHLHSSHGTNTSSTAHFNGLSQTVLNRAEALVRESKVRSQTQVDLCKDSPYELKKGMSNI | not soluble
MMNTDNRLLTRESSEHIREFFSTVERLSVSMERLFAGRSPAMAGENFYTDRELAEKLKVSRRSLQQYRDSGLLAFTRLGGKILYRSSDIEKLLDGCYREARTRPEEL | not soluble
MGSDKIHHHHHHMNEKTSVSSDRRDFWDGRAREFSEHAASTGYPRAFLRILKPRKSWTVLDMACGGGTIAIPLANRVKFITAVDFSMRMLEIVEQRCLAGKITNVKTLQGRWEDDWDDLGIGVHDVAIASRSLLSETAMDSIAKLNRAATKAVYISVAVGSGPFDWRLLEAADRERNTRPDYIFYYNLLYEMGIPANVSFIPESYRNSWESHEEAFEDQLWMFQGMTGEEEEKVRAYLREHLVWVKGHWQLPYSRNYYWAVLYWTKDREIGS | not soluble
QIDYRDVFIEFLTTFKGNNNQNKYIERINELVAYRKKSLIIEFSDVLSFNENLAYEIINNTKIILPILEGALYDHILQLDPTYQRDIEKVHVRIVGIPRVIELRKIRSTDIGKLITIDGILVKVTPVKERIYKATYKHIHPDCMQEFEWPEDEEMPEVLEMPTICPKCGKPGQFRLIPEKTKLIDWQKAVIQERPEEVPSGQLPRQLEIILEDDLVDSARPGDRVKVTGILDIKQDSPVKRGSRAVFDIYMKVSSIEVSQKVLDEVIISEEDEKKIKDLAKDPWIRDRIISSIAPSIYGHWELKEALALALFGGVPKVLEDTRIRGDIHILIIGDPGTAKSQMLQFISRVAPRAVYTTGKGSTAAGLTAAVVREKGTGEYYLEAGALVLADGGIAVIDEIDKMRDEDRVAIHEAMEQQTVSIAKAGIVAKLNARAAVIAAGNPKFGRYISERPVSDNINLPPTILSRFDLIFILKDQPGEQDRELANYILDVHSGKSTKNIIDIDTLRKYIAYARKYVTPKITSEAKNLITDFFVEMRKKSSETPDSPILITPRQLEALIRISEAYAKMALKAEVTREDAERAINIMRLFLESVG | soluble
VYGDIWGFETDRYFTKDDFNADGSYKEGIASQKKLEQDGFVYGPGDIKFKDLNNDKEINGGEGTVKDHGDLKVIGNTTPRYQYGFRLGGEWKGIDIDMFFQGVGKCDAWTQSAFVMPMMRGADAIYANQANYWTDENPDPNADFPRMWPGNAGKGTVSVLDLGNHNFYPQSKYLVNMAYLRFKNLTIGYTLPKDWTRKVYMDKVRVYFSANNICELINKSNAPVDPEVNTSEAIANGGSSDYGNGTWGRVDPMYRTVSFGLQVTF | not soluble
MKHFDFSLRIWPISLWFVKHSGVKNPMNEVIIREITSEDKEMFLCAMQSSQALHHPWVKAPIIPEEFDEYFSRYQKPNQKSYLLLSDNNLAGVFNISEIVRGYFQNAYLGFYVVAAYAGKGYMSTGLKLILTKVFKDMGLHRLEANIQPENTRSIWLVKKNGFRYEGFSPRYLRVNDVWQGHEHWAMTYEDFIKDNNEVLEKDHIDIVAYNTEWPLLAKAEMVKLRASFPANSVIDIQHVGSTAIPGMASKPIIDIQIAVRSLEEMKIIAVPILQKLDYEYWEDNPDPERMFFVKGMPPYGNGRTHHVHIVEASSRHWKGKTFFRDYLLSHPEAAEKYQQLKIKLAQEHKYDREQYTDAKSEFINQILKLAQN | not soluble
MFREAELRNGLRVIAEVVPGARSVALGYFVKTGARDETKEESGVSHFLEHMVFKGPEDMDALAVNRAFDRMGAQYNAFTSEEATVYYGAVLPEFAYDLLGLFAKLLRPALREEDFQTEKLVILEEIARYQDRPGFMAYEWARARFFQGHPLGNSVLGTRESITALTREGMAAYHRRRYLPKNMVLAATGRVDFDRLLAEAERLTEAWPEGEAERAYPPLTPAFGVEERPYEKARALYLVALFPGVAYQEEARFPGQVLAHLLGEEGSGRLHFALVDKGLAEVASFGLEEADRAGTFHAYVQADPARKGEVLAVLQEELDRLGREGVGEEEVERAKTPLATGLVFAGETPMQRLFHLGMEYLYTGRYLSLEEVKARVQRVTSREVNALLERGFLEKGLYYLVLPHGA | soluble
MSVLEVKGLTKVYQSKGSVATTALNDINFKIEEGEFVGIMGPSGSGKTTLLNLLATIDKQTSGHVLVNGEEINQMRAAKLAEFRRTHLGFIFQDFNLLDTLSIKENIILPLVMAKKSVNEIDAKVLEIAKFLNIEEILNKKVYEVSGGQQQRAAAARAIIHEPTLILADEPTGNLDSKSAKSLMSALQDLHEQKRVTIAMVTHDPVAASYCERILFIRDGEIFSEIHKGRTKQAFFQEILDVLAMLGGEYHELSPARA | not soluble
MGKLYVVPTPVGNLEDMTFRAIRVLKEVDLILAEDTRTSGILLKHFEIKNAMQSHHKFNEHKTVESVVNRIKAGETVALISDAGTPGISDPGFLVVRECVRNGIEVQCLPGATAFVPALVASGLPNEKFCFEGFLPQKKGRQTRLKALAEEHRTMVFYESPHRLLKTLTQFAEYFGTERQATVSREISKLHEETVRGSLAELIEHFTATEPRGEIVIVLAGIDD | soluble
MAKQKDNYLDYVPKHNSLFECRENKKGHVEVKVHNKGIFNRIAQLIARKPRYSYIELDDFGTFVWHSIDGVRSIYDIGQLVKEHFGDKAEPLYERLCYFIKLLHKNQFIVYMNKINKQINK | not soluble
MGSDKIHHHHHHMNDPTFYRDGQGQPIQPDSAREAVAWLTQLMSDSVTEQDRREWQRWREASPDNEQAWQHIESVCANLGQLNARAAHQSLSTLNGMQRRSVLKALAILCLTGGAGMAGSRTDVWQSFTADYQTQVGEQRHAVLEDGTTLLLNTQTALNVAYGDDLRQLTLIRGEVMIETSQVEKAALYPRPFIVTTAQGKVQALGTRFSLRVQDEHTQVAVYDGAVRLHPQRNGQDVQVVKSGQTATFTTQRCGQIETEKAEPAWVKGQLLADNQRLVDFVDELSRYRSGVIRCQPEVESLRFSGVFPLSDTDNILAALAEALPVQVRYFSRYWVQIAAR | not soluble
MKPKEDREWEKFKTKHITSQSVADFNCNRTMNDPAYTPDGQCKPINTFIHSTTGPVKEICRRATGRVNKSSTQQFTLTTCKNPIRCKYSQSNTTNFICITCRDNYPVHFVKTGKC | soluble
MKTIGILGGMGPLATAELFRRIVIKTPAKRDQEHPKVIIFNNPQIPDRTAYILGKGEDPRPQLIWTAKRLEECGADFIIMPCNTAHAFVEDIRKAIKIPIISMIEETAKKVKELGFKKAGLLATTGTIVSGVYEKEFSKYGVEIMTPTEDEQKDVMRGIYEGVKAGNLKLGRELLLKTAKILEERGAECIIAGCTEVSVVLKQDDLKVPLIDPMDVIAEVAVKVALEK | soluble
